Laboratory results taken from PMC10576099, “Endothelial discoidin domain receptor 1 senses flow to modulate YAP activation” (Nature Communications, 2023).
Numbering of substitutions follows the chain as printed. Names may count otherwise.

B1: WT DDR1-EGFP co-expressed with mCherry-WT DDR1 (dual-color FRAP) (receptor, human, UniProt Q08345 19-913, looked up)
chain: DADMKGHFDPAKCRYALGMQDRTIPDSDISASSSWSDSTAARHSRLESSDGDGAWCPAGSVFPKEEEYLQVDLQRLHLVALVGTQGRHAGGLGKEFSRSYRLRYSRDGRRWMGWKDRWGQEVISGNEDPEGVVLKDLGPPMVARLVRFYPRADRVMSVCLRVELYGCLWRDGLLSYTAPVGQTMYLSEAVYLNDSTYDGHTVGGLQYGGLGQLADGVVGLDDFRKSQELRVWPGYDYVGWSNHSFSSGYVEMEFEFDRLRAFQAMQVHCNNMHTLGARLPGGVECRFRRGPAMAWEGEPMRHNLGGNLGDPRARAVSVPLGGRVARFLQCRFLFAGPWLLFSEISFISDVVNNSSPALGGTFPPAPWWPPGPPPTNFSSLELEPRGQQPVAKAEGSPTAILIGCLVAIILLLLLIIALMLWRLHWRRLLSKAERRVLEEELTVHLSVPGDTILINNRPGPREPPPYQEPRPRGNPPHSAPCVPNGSALLLSNPAYRLLLATYARPPRGPGPPTPAWAKPTNTQAYSGDYMEPEKPGAPLLPPPPQNSVPHYAEADIVTLQGVTGGNTYAVPALPPGAVGDGPPRVDFPRSRLRFKEKLGEGQFGEVHLCEVDSPQDLVSLDFPLNVRKGHPLLVAVKILRPDATKNARNDFLKEVKIMSRLKDPNIIRLLGVCVQDDPLCMITDYMENGDLNQFLSAHQLEDKAAEGAPGDGQAAQGPTISYPMLLHVAAQIASGMRYLATLNFVHRDLATRNCLVGENFTIKIADFGMSRNLYAGDYYRVQGRAVLPIRWMAWECILMGKFTTASDVWAFGVTLWEVLMLCRAQPFGQLTDEQVIENAGEFFRDQGRQVYLSRPPACPQGLYELMLRCWSRESEQRPPFSQLHRFLAEDALNTV
notes: human DDR1, DDR1b isoform, from a plasmid with full-length DDR1b; Two differently tagged copies of the same protein in one cell: each copy has only one of the two fluorescent proteins; The mCherry copy is held by an anti-mCherry polyclonal antibody, the EGFP copy is the one whose mobility is read; also called DDR1 (WT)-GFP; mCherry-DDR1 (WT); source: EA.hy926 ECs, transfected, in living cells; …
B2: locked DDR1-EGFP (D189C/F364C) co-expressed with mCherry-locked DDR1 (dual-color FRAP) (receptor, human, UniProt Q08345 19-913, looked up)
chain: B1 chain with D171C, F346C
notes: human DDR1, DDR1b isoform, DS-like domain locked by two cysteines; Two differently tagged copies of the same mutant in one cell, as for m3; also called DS-like locked mutant; source: EA.hy926 ECs, transfected, in living cells; not shown: EGFP (on one copy); mCherry (on the other copy)
B3: YWHAE-Cherry recombinant protein (natural protein, UniProt P62258 1-255, looked up)
chain: MDDREDLVYQAKLAEQAERYDEMVESMKKVAGMDVELTVEERNLLSVAYKNVIGARRASWRIISSIEQKEENKGGEDKLKMIREYRQMVETELKLICCDILDVLDKHLIPAANTGESKVFYYKMKGDYHRYLAEFATGNDRKEAAENSLVAYKAASDIAMTELPPTHPIRLGLALNFSVFYYEILNSPDRACRLAKAAFDDAIAELDTLSEESYKDSTLIMQLLRDNLTLWTSDMQGDGEEQNKEALQDVEDENQ
notes: YWHAE (14-3-3ε), Uniprot No. P62258; also called recombinant YWHAE protein; source: bought: Dai-An Biotechnology (Wuhan); expressed by E. coli BL21 (DE3), purity >90% by SDS-PAGE; not shown: mCherry, C-terminal, kept

Columns and labels:
[1] = target: the molecule itself; assay: dual-color FRAP with antibody immobilisation; EA.hy926 ECs co-expressing DDR1-EGFP and mCherry-DDR1, 5 min pre-shear; anti-mCherry polyclonal antibody immobilises the mCherry copy, lateral mobility of the EGFP copy read by FRAP
DDR1 (416-913aa)-EGFP = target: T1, DDR1 (416-913aa)-EGFP (human, UniProt Q08345 416-913); assay: cell-free droplet (phase separation) assay + turbidity; purified DDR1-C or DDR1-N (5 μM) incubated with varying concentrations of YWHAE-Cherry; 20 mM Tris-HCl pH 7.0, 75 mmol/L KCl, 1 mmol/L DTT, 4 °C 5-10 min, confocal imaging; turbidity at 600 nm with 5% PEG8000; details: both partners purified
T1 construct: human DDR1 (DDR1b), residues 416-913, containing the transmembrane and cytosolic domains; also called DDR1-C; source: E. coli Transetta (DE3), purified (Ni-NTA)

Binder | FRAP recovery ratio of the EGFP copy with the mCherry copy immobilised [1] | binding result (DDR1 (416-913aa)-EGFP)
B1 | 49.2 ± 9.6% | 
B2 | 67.6 ± 4% | 
B3 |  | binds
